Laboratory results taken from patent US20140363427A1 (CRUCELL HOLLAND B V, published 2014).
Like-named read-outs stand apart in the source and are kept apart here.

B1: Fab 17C9 (Fab, V domains shown)
VH: QVQLQQWGAGLVRPSETLSLTCAVYGDSFNDYFWTWIRQTPGKGLEWIGEISHSGSTNYSPSLKSRVTISVDTSKNQFSLKLSAVTAADTTVYFCARGVRSRPPPSYRGSGSPPYYHYGMDVWGQGTTVTVSS
VL: EIVLTQSPSTLSASVGDRVTITCRASQNINTWLAWYQQKPGKAPKLLIYAASFLQSGVPSRFSGSGSGTDFTLTISNLQPEDFATYFCQQANSFPRTFGQGTKVEVKR
notes: also called 17C9 Fab
B2: IgG form of 17C9 (antibody, V domains shown)
VH: B1 VH
VL: B1 VL
B3: IgG form of 30D8 (antibody, V domains shown)
VH: EVQLLQSGAELKKPGASVKISCKTSGFTFSGHTIAWVRQAPGQGLEWMGWVSTNNGNTEYAQKIQGRVTMTMDTSTSTVYMELRSLTSDDTAVYFCAREWLVMGGFAFDHWGQGTLLTVSS
VL: QSVLTQASSVSVAPGQTARITCGANNIGSQNVHWYQQKPGQAPVLVVYDDRDRPSGIPDRFSGSNSGNTATLTISRVEAGDEADYYCQVWDSSRDQAVIFGGGTKLTVLG
notes: also called IgG 30D8; 30D8 Mab
B4: Fab 30D8 (Fab, V domains shown)
VH: B3 VH
VL: B3 VL
B5: Fab 104E5 (Fab, V domains shown)
VH: QVQLEQSGAEVKKPGSSVKVSCKPSGGTFDTYTISWVRQAPGQRLEWLGRIIPSLGETNYAHKLQGRVTITADKATSVVYMDLSDLTSEDAAVYYCAFRITGPVDWVWDYGMDVWGQGTTVSVSS
VL: DIQMTQSPSSLPASVGDRVTITCRASQNIKTYLNWYQQKPGRAPKLLISAVSNLQSGVPSRFSGTGSGTDFTLTISSLQPEDFATYYCQQSFSIPLTFGGGAKVEIKR
B6: IgG form of 104E5 (antibody, V domains shown)
VH: B5 VH
VL: B5 VL
B7: Motavizumab IgG (antibody, V domains shown)
VH: QVTLRESGPALVKPTQTLTLTCTFSGFSLSTAGMSVGWIRQPPGKALEWLADIWWDDKKHYNPSLKDRLTISKDTSKNQVVLKVTNMDPADTATYYCARDMIFNFYFDVWGQGTTVTVSS
VL: DIQMTQSPSTLSASVGDRVTITCSASSRVGYMHWYQQKPGKAPKLLIYDTSKLASGVPSRFSGSGSGTEFTLTISSLQPDDFATYYCFQGSGYPFTFGGGTKVEIK
B8: Fab 38F10 (Fab, V domains shown)
VH: EVQLLESGGDVVQPGKSLRLSCTASGFSITDFGIHWVRQAPGKGLEWVALISYNEVNIHYGESVRGRFTISRDIAKNTVYLQMNGLRPEDTGVYFCARDVWEDSWLSLACFQEWGQGSLVVVSS
VL: DIQLTQSPPTLSASVGDRVSMTCRASQSISNWLAWYQQKPGKAPKLLIQKASNLEDGVPSRFTASGFGTEFTLTISSLQPDDFATYYCQQYNSYSGLSFGGGTKVDIKR
B9: IgG form of 38F10 (antibody, V domains shown)
VH: B8 VH
VL: B8 VL
B10: IgG form of 14G3 (antibody, V domains shown)
VH: QVQLQESGPGLVKPSQTLSLTCTVSGASISSDNHYWSWIRQPPGKGLEWIASIYYTGGTNYNPSLKSRLALSIDTSGDQFSLKLSSVTAADTAVYYCVRGLFFITARPYWYFDLWGRGTLVAVSS
VL: DVVMTQTPLSLSVTPGEPASISCRSSQSLLDSDDGNTYLDWYLQKPGQSPQLLIYTLSYRASGVPDRFSGSGSGTDFTLKISRVEADDVGIYYCMQRMEFPFTFGQGTRLDIKR
B11: Fab 56E11 (Fab, V domains shown)
VH: EVQLQESGPGLVKPSETLSLTCSVSGVSINSNNYFWAWIRQPPGKGLEWIGNIYYGGSTHYNASLQSRVTISVDTSKSQFSLKLNSVTSADTAVYYCAASESIFWDYYYGLDVWGQGTTVTVSS
VL: QAVLTQPPSASGSPGQSVTISCTGTSSDVGGYNYVSWYQQHPGKAPRLIISEVTKRPSGVPGRFSGSKSGNTASLTVSGLQAEDEADYYCSSYAGSRHVVFGGGTKLTVLG
notes: also called 56E11 Fab
B12: IgG form of 56E11 (antibody, V domains shown)
VH: B11 VH
VL: B11 VL
B13: Fab 90D3 (Fab, V domains shown)
VH: QVQLVESGGGLVKPGGSLRLSCVGSGFTLKNYEMNWVRQAPGQGLQYISYISSSGNVVKYVDSVQGRFTISRDNAGNSLYLQMNNLRAEDTATYYCVRGFSIDKYDSSVDEYWGQGIAVTVSS
VL: AIRLTQSPSSLSASVGDRVSITCRASQSISNFLNWYQQKPGRAPKLLISAASSLQGGVPSRFSGSGSGTDFTLTISSLQPEDFATYYCQQTYISLYTFGQGTKLEIKR
B14: Fab 69F6 (Fab, V domains shown)
VH: QMQLVQSGAEVRKPGESLKIACKGSGYSFTSYWIAWVRQMPGKGLEWLGIIFPNDSDATYSPSFQGQVTMSVDKSISTAYLQWNSLKASDTAVYFCARQYYLGSFESWGQGTTVTVSS
VL: EIVLTQSPSSLSASVGDRVTISCQASQDISNYLNWYQQKPGKAPRLLIYDASYLDTGVPSRFSGSGSGTDFTFTISSLQPEDFATYYCQQYDDLRGGFTFGPGTKVDVKR
notes: also called 69F6 Fab
B15: IgG form of 69F6 (antibody, V domains shown)
VH: B14 VH
VL: B14 VL

Columns and labels:
[1] = biological target: T1, native RSV F protein from the RSV A2 strain (Respiratory Syncytial Virus strain A2, UniProt P03420 26-574); test: cell-based or functional assay
[2] = biological target: F protein of the parental RSV A2 strain (Example 11) (Respiratory Syncytial Virus strain A2, UniProt P03420 26-574); test: cell-based or functional assay
[3] = biological target: T2, recombinant RSV F protein, strain A2, extracellular domain (Respiratory Syncytial Virus strain A2, UniProt P03420 26-524); test: ELISA, purified Fab, estimated EC50
T2 construct: also called RSV F1 lysate (recombinant); RSV F lysate

[4] = biological target: T1, native RSV F protein from the RSV A2 …; test: ELISA, IgG titrated, estimated EC50
[5] = biological target: T1, native RSV F protein from the RSV A2 …; test: cell-based or functional assay; remark: listed apart in the source
[6] = biological target: F protein of RSV B-wash (strain 18537) (respiratory syncytial virus B, strain …, UniProt P13843 26-574); test: cell-based or functional assay
F protein of RSV B-1 = F protein of RSV B-1 (respiratory syncytial virus B-1, UniProt O36634 26-574); test: cell-based or functional assay
RSV F A2 mutant V278M = biological target: T3, RSV F A2 mutant V278M (human RSV, A2 strain, UniProt P03420 26-574); test: mutant F in HEK 293 cells
T3 construct: whole, on cells

[7] = biological target: T1, native RSV F protein from the RSV A2 …; test: ELISA, purified Fab, estimated EC50
[8] = biological target: F protein of the parental RSV A2 strain (Example 11) (Respiratory Syncytial Virus strain A2, UniProt P03420 26-574); test: cell-based or functional assay; remark: listed apart in the source
[9] = biological target: T2, recombinant RSV F protein, strain A2, …; test: ELISA, IgG titrated, estimated EC50
[10] = biological target: T2, recombinant RSV F protein, strain A2, …; test: comparison of ELISA EC50

| Binder | ED50, plaque reduction, RSV A2 [1] | ED50, plaque reduction, RSV A2 [5] | ED50, plaque reduction, RSV B/wash [6] | ED50, plaque reduction, RSV B-1 (F protein of RSV B-1) | other results |
| --- | --- | --- | --- | --- | --- |
| B1 | 0.352 nM | – | – | – | ED50, plaque reduction, RSV A2 parental [2]: 0.436 nM; EC50 [3]: 0.136 nM |
| B2 | – | 0.363 nM | 0.86 nM | 0.329 nM | EC50 [4]: 0.059 nM |
| B3 | – | 0.089 nM | 0.115 nM | 0.055 nM | ratio of binding 58C5/30D8 (RSV F A2 mutant V278M): 3.1; ED50, plaque reduction, RSV A2 parental [2]: 0.096 nM |
| B4 | 0.107 nM | – | – | – | – |
| B5 | 0.58 nM | – | – | – | ED50, plaque reduction, RSV A2 (mass concentration) [1]: 0.029 µg/mL; EC50 [7]: 0.08 nM |
| B6 | – | 0.8 nM | 8 nM | 1.7 nM | EC50 [4]: 0.0145 nM |
| B7 | – | 0.36 nM | 2.9 nM | 0.833 nM | EC50 [4]: 0.027 nM; ED50, plaque reduction, RSV A2 parental [8]: 0.519 nM |
| B8 | 0.8 nM | – | – | – | ED50, plaque reduction, RSV A2 (mass concentration) [1]: 0.04 µg/mL; EC50 [7]: 0.177 nM |
| B9 | – | 0.553 nM | 5.3 nM | 1.4 nM | EC50 [4]: 0.035 nM |
| B10 | – | – | 4.5 nM | 10.7 nM | EC50 [9]: 0.251 nM |
| B11 | 0.93 nM | – | – | – | EC50 [3]: 0.545 nM |
| B12 | – | – | 0.282 nM | 0.295 nM | EC50 [9]: 0.073 nM; fold less affinity than the IgG form of 30D8 [10]: ~10 fold |
| B13 | 0.8 nM | – | – | – | – |
| B14 | 0.26 nM | – | – | – | ED50, plaque reduction, RSV A2 parental [2]: 0.256 nM; EC50 [3]: 0.135 nM |
| B15 | – | – | > 67 nM | > 67 nM | EC50 [9]: 0.063 nM; fold less affinity than the IgG form of 30D8 [10]: ~10 fold |
